Assay results as given in patent US20060067886A1, “Gastrin receptor-avid peptide conjugates” (priority 1997, published 2006).

Experiment: Biodistribution of radiometal-DOTA-BBN conjugates in CF1 normal mice
Conditions: 1 hour post-injection; for tissue uptake dose at 1 h / dose excreted at 1 h / tissue uptake at 1 h: CF-1, mouse, in vivo, iv, total radioactivity; for tissue uptake dose at 1 h / dose excreted at 1 h: Avg % ID; for dose excreted at 1 h: Urine; for tissue uptake at 1 h: Avg % ID/gm

CSCC[C@H](NC(=O)[C@H](CC(C)C)NC(=O)[C@H](Cc1c[nH]cn1)NC(=O)CNC(=O)[C@@H](NC(=O)[C@H](C)NC(=O)[C@H](Cc1c[nH]c2ccccc12)NC(=O)[C@H](CCC(N)=O)NC(=O)CCCCNC(=O)CN1CCN(CC(=O)O)CCN(CC(=O)O)CCN(CC(=O)O)CC1)C(C)C)C(N)=O [111In-DOTA-5-Ava-BBN[7-14]NH2, metal not drawn]
tissue uptake dose at 1 h (Blood): 0.45 ± 0.14 %ID
tissue uptake dose at 1 h (Kidney): 0.75 ± 0.14 %ID
tissue uptake dose at 1 h (L. Intestine): 2.74 ± 0.8 %ID
tissue uptake dose at 1 h (Pancreas): 5.57 ± 0.99 %ID
dose excreted at 1 h: 81.3 ± 1.32%
tissue uptake at 1 h (Blood): 0.2 ± 0.07 %ID/g
tissue uptake at 1 h (Kidney): 1.84 ± 0.44 %ID/g
tissue uptake at 1 h (L. Intestine): 3.07 ± 0.86 %ID/g
tissue uptake at 1 h (Pancreas): 15.8 ± 2.54 %ID/g

CSCC[C@H](NC(=O)[C@H](CC(C)C)NC(=O)[C@H](Cc1cnc[nH]1)NC(=O)CNC(=O)[C@@H](NC(=O)[C@H](C)NC(=O)[C@H](Cc1c[nH]c2ccccc12)NC(=O)[C@H](CCC(N)=O)NC(=O)CCNC(=O)CN1CCN(CC(=O)O)CCN(CC(=O)O)CCN(CC(=O)O)CC1)C(C)C)C(N)=O [111In-DOTA-β-Ala-BBN[7-14]NH2] [metal not drawn]
Avg % ID, Heart: 0.01 ± 0.01 % ID
Avg % ID, L. Intestine: 0.90 ± 0.57 % ID
Avg % ID, Muscle: 0.01 ± 0.01 % ID
Avg % ID, Pancreas: 1.84 ± 0.35 % ID
Avg % ID, S. Intestine: 1.57 ± 0.65 % ID
Avg % ID, Spleen: 0.05 ± 0.00 % ID
Avg % ID/gm, Heart: 0.06 ± 0.04 % ID/gm
Avg % ID/gm, L. Intestine: 1.10 ± 0.78 % ID/gm
Avg % ID/gm, Muscle: 0.03 ± 0.02 % ID/gm
Avg % ID/gm, Pancreas: 4.92 ± 0.37 % ID/gm
Avg % ID/gm, S. Intestine: 1.01 ± 0.37 % ID/gm
Avg % ID/gm, Spleen: 0.37 ± 0.06 % ID/gm

CSCC[C@H](NC(=O)[C@H](CC(C)C)NC(=O)[C@H](Cc1c[nH]cn1)NC(=O)CNC(=O)[C@@H](NC(=O)[C@H](C)NC(=O)[C@H](Cc1c[nH]c2ccccc12)NC(=O)[C@H](CCC(N)=O)NC(=O)CCCCNC(=O)CN1CCN(CC(=O)O)CCN(CC(=O)O)CCN(CC(=O)O)CC1)C(C)C)C(N)=O [111In-DOTA-5-Ava-BBN[7-14]NH2] [metal not drawn]
Avg % ID, Carcass: 3.15 ± 0.70 % ID
Avg % ID, Heart: 0.02 ± 0.01 % ID
Avg % ID, Liver: 0.26 ± 0.03 % ID
Avg % ID, Lung: 0.04 ± 0.01 % ID
Avg % ID, Muscle: 0.01 ± 0.01 % ID
Avg % ID, S. Intestine: 0.11 ± 0.04 % ID
Avg % ID, Spleen: 0.11 ± 0.04 % ID
Avg % ID, Stomach: 0.37 ± 0.16 % ID
Avg % ID/gm, Heart: 0.10 ± 0.04 % ID/gm
Avg % ID/gm, Liver: 0.16 ± 0.02 % ID/gm
Avg % ID/gm, Muscle: 0.05 ± 0.02 % ID/gm
Avg % ID/gm, S. Intestine: 3.49 ± 0.87 % ID/gm
Avg % ID/gm, Spleen: 0.87 ± 0.28 % ID/gm
Avg % ID/gm, Stomach: 0.71 ± 0.24 % ID/gm

CSCC[C@H](NC(=O)[C@H](CC(C)C)NC(=O)[C@H](Cc1cnc[nH]1)NC(=O)CNC(=O)[C@@H](NC(=O)[C@H](C)NC(=O)[C@H](Cc1c[nH]c2ccccc12)NC(=O)[C@H](CCC(N)=O)NC(=O)CCNC(=O)CN1CCN(CC(=O)O)CCN(CC(=O)O)CCN(CC(=O)O)CC1)C(C)C)C(N)=O [177Lu-DOTA-β-Ala-BBN[7-14]NH2] [metal not drawn]
Avg % ID, Blood: 0.24 ± 0.25 % ID
Avg % ID, Carcass: 2.73 ± 1.08 % ID
Avg % ID, Heart: 0.05 ± 0.08 % ID
Avg % ID, Kidney: 0.63 ± 0.14 % ID
Avg % ID, L. Intestine: 0.36 ± 0.17 % ID
Avg % ID, Liver: 0.21 ± 0.09 % ID
Avg % ID, Lung: 0.04 ± 0.06 % ID
Avg % ID, Muscle: 0.11 ± 0.18 % ID
Avg % ID, Pancreas: 0.32 ± 0.07 % ID
Avg % ID, S. Intestine: 0.64 ± 0.20 % ID
Avg % ID, Spleen: 0.05 ± 0.04 % ID
Avg % ID, Stomach: 0.13 ± 0.09 % ID
Avg % ID/gm, Blood: 0.16 ± 0.17 % ID/gm
Avg % ID/gm, Heart: 0.43 ± 0.70 % ID/gm
Avg % ID/gm, Kidney: 1.88 ± 0.37 % ID/gm
Avg % ID/gm, L. Intestine: 0.45 ± 0.19 % ID/gm
Avg % ID/gm, Liver: 0.15 ± 0.06 % ID/gm
Avg % ID/gm, Lung: 0.23 ± 0.33 % ID/gm
Avg % ID/gm, Muscle: 0.94 ± 1.54 % ID/gm
Avg % ID/gm, Pancreas: 1.44 ± 0.26 % ID/gm
Avg % ID/gm, S. Intestine: 0.49 ± 0.10 % ID/gm
Avg % ID/gm, Spleen: 0.31 ± 0.31 % ID/gm
Avg % ID/gm, Stomach: 0.34 ± 0.18 % ID/gm

CSCC[C@H](NC(=O)[C@H](CC(C)C)NC(=O)[C@H](Cc1c[nH]cn1)NC(=O)CNC(=O)[C@@H](NC(=O)[C@H](C)NC(=O)[C@H](Cc1c[nH]c2ccccc12)NC(=O)[C@H](CCC(N)=O)NC(=O)CCCCCCCCCCNC(=O)CN1CCN(CC(=O)O)CCN(CC(=O)O)CCN(CC(=O)O)CC1)C(C)C)C(N)=O [111In-DOTA-11-Aun-BBN[7-14]NH2] [metal not drawn]
Avg % ID, Heart: 0.02 ± 0.01 % ID
Avg % ID, Lung: 0.08 ± 0.01 % ID
Avg % ID, Muscle: 0.02 ± 0.01 % ID
Avg % ID/gm, Blood: 0.34 ± 0.08 % ID/gm
Avg % ID/gm, Heart: 0.13 ± 0.04 % ID/gm
Avg % ID/gm, Kidney: 2.06 ± 0.31 % ID/gm
Avg % ID/gm, Lung: 0.26 ± 0.05 % ID/gm
Avg % ID/gm, Muscle: 0.09 ± 0.03 % ID/gm

CSCC[C@H](NC(=O)[C@H](CC(C)C)NC(=O)[C@H](Cc1cnc[nH]1)NC(=O)CNC(=O)[C@@H](NC(=O)[C@H](C)NC(=O)[C@H](Cc1c[nH]c2ccccc12)NC(=O)[C@H](CCC(N)=O)NC(=O)CN1CCN(CC(=O)O)CCN(CC(=O)O)CCN(CC(=O)O)CC1)C(C)C)C(N)=O [149Pm-DOTA-0-BBN[7-14]NH2]
Avg % ID, Blood: 0.00 ± 0.00 % ID
Avg % ID, Carcass: 1.98 ± 2.27 % ID
Avg % ID, Heart: 0.00 ± 0.00 % ID
Avg % ID, Kidney: 0.34 ± 0.28 % ID
Avg % ID, L. Intestine: 0.01 ± 0.02 % ID
Avg % ID, Liver: 0.16 ± 0.15 % ID
Avg % ID, Lung: 0.00 ± 0.00 % ID
Avg % ID, Muscle: 0.00 ± 0.00 % ID
Avg % ID, Pancreas: 0.07 ± 0.01 % ID
Avg % ID, S. Intestine: 0.38 ± 0.25 % ID
Avg % ID, Spleen: 0.00 ± 0.00 % ID
Avg % ID, Stomach: 0.02 ± 0.05 % ID
Avg % ID/gm, Blood: 0.00 ± 0.00 % ID/gm
Avg % ID/gm, Heart: 0.00 ± 0.00 % ID/gm
Avg % ID/gm, Kidney: 1.04 ± 0.90 % ID/gm
Avg % ID/gm, L. Intestine: 0.01 ± 0.03 % ID/gm
Avg % ID/gm, Liver: 0.12 ± 0.10 % ID/gm
Avg % ID/gm, Lung: 0.00 ± 0.00 % ID/gm
Avg % ID/gm, Muscle: 0.00 ± 0.00 % ID/gm
Avg % ID/gm, Pancreas: 0.00 ± 0.00 % ID/gm
Avg % ID/gm, S. Intestine: 0.27 ± 0.17 % ID/gm
Avg % ID/gm, Spleen: 0.00 ± 0.00 % ID/gm
Avg % ID/gm, Stomach: 0.04 ± 0.08 % ID/gm

CSCC[C@H](NC(=O)[C@H](CC(C)C)NC(=O)[C@H](Cc1cnc[nH]1)NC(=O)CNC(=O)[C@@H](NC(=O)[C@H](C)NC(=O)[C@H](Cc1c[nH]c2ccccc12)NC(=O)[C@H](CCC(N)=O)NC(=O)CN1CCN(CC(=O)O)CCN(CC(=O)O)CCN(CC(=O)O)CC1)C(C)C)C(N)=O [111In-DOTA-0-BBN[7-14]NH2, metal not drawn]
tissue uptake dose at 1 h (Blood): 0.22 ± 0.07 %ID
tissue uptake dose at 1 h (Heart): 0.01 %ID
tissue uptake dose at 1 h (Kidney): 0.57 ± 0.02 %ID
tissue uptake dose at 1 h (Liver): 0.17 ± 0.02 %ID
tissue uptake dose at 1 h (Lung): 0.03 %ID
tissue uptake dose at 1 h (Muscle): 0.01 %ID
tissue uptake dose at 1 h (Pancreas): 0.07 ± 0.01 %ID
tissue uptake dose at 1 h (Spleen): 0.01 %ID
dose excreted at 1 h: 96.95 ± 0.37%
tissue uptake at 1 h (Heart): 0.05 ± 0.02 %ID/g
tissue uptake at 1 h (Kidney): 1.24 ± 0.14 %ID/g
tissue uptake at 1 h (Liver): 0.09 ± 0.01 %ID/g
tissue uptake at 1 h (Lung): 0.13 ± 0.03 %ID/g
tissue uptake at 1 h (Pancreas): 0.2 ± 0.04 %ID/g
tissue uptake at 1 h (Spleen): 0.08 ± 0.02 %ID/g

CSCC[C@H](NC(=O)[C@H](CC(C)C)NC(=O)[C@H](Cc1cnc[nH]1)NC(=O)CNC(=O)[C@@H](NC(=O)[C@H](C)NC(=O)[C@H](Cc1c[nH]c2ccccc12)NC(=O)[C@H](CCC(N)=O)NC(=O)CCCCCCCNC(=O)CN1CCN(CC(=O)O)CCN(CC(=O)O)CCN(CC(=O)O)CC1)C(C)C)C(N)=O [149Pm-DOTA-8-Aoc-BBN[7-14]NH2]
Avg % ID, Blood: 0.23 ± 0.26 % ID
Avg % ID, Carcass: 10.30 ± 1.84 % ID
Avg % ID, Heart: 0.00 ± 0.01 % ID
Avg % ID, Kidney: 1.55 ± 0.47 % ID
Avg % ID, L. Intestine: 4.43 ± 2.37 % ID
Avg % ID, Lung: 0.02 ± 0.04 % ID
Avg % ID, Muscle: 0.01 ± 0.02 % ID
Avg % ID, Pancreas: 7.34 ± 3.51 % ID
Avg % ID, S. Intestine: 7.84 ± 2.15 % ID
Avg % ID, Spleen: 0.24 ± 0.06 % ID
Avg % ID, Stomach: 0.66 ± 0.35 % ID
Avg % ID/gm, Blood: 0.12 ± 0.13 % ID/gm
Avg % ID/gm, L. Intestine: 4.14 ± 2.14 % ID/gm
Avg % ID/gm, Liver: 0.19 ± 0.12 % ID/gm
Avg % ID/gm, Lung: 0.09 ± 0.14 % ID/gm
Avg % ID/gm, Muscle: 0.09 ± 0.21 % ID/gm
Avg % ID/gm, Pancreas: 28.29 ± 13.26 % ID/gm
Avg % ID/gm, S. Intestine: 12.56 ± 16.70 % ID/gm
